Test results from the DeepSol protein solubility set.

Test: soluble on expression in E. coli; label from the status in PepcDB or PDB records

| Sequence | soluble on expression in E. coli |
| --- | --- |
| MKKINKGKSLSRFQLVSTLSVLGAMGLAGNVHAAEAFAADSPWMTGDWNGKRTELLDKGYDFSLEYVSEMASNLKGGSNDDTTGRYSDQFALGMKVDLQKVLGWQDAEFKLAITERSGRNISNDRIGDPRAGTLSSSQEVWGRGQTWRLTQMWVKQKYFDGALDVKAGRFGPGEDFNSFPCDFQNLSFCGSQVGNYVNTWYNWPISQWALRVKYNITPEVYAQVGVYEQNPSNLETGNGFKLSGSGTKGMILPVELVWTPTVNSLPGEYRVGYYKSTPNADDVYEDVNGQPQAATGAAFKSHDSKHGWWVVAQQQLTSHNGDASRGLSIFANATVHDKETNFVDNYQQIGLTYKGPFNSRPKDDIGVGIARIHVNDDVQDRVRLANQISGINDFDNPGYLPVQSTEYNSEIYYGFHVTNWLTVRPNLQFIKHPGGVDQVDDAIVAGIKIQSKF | not soluble |
| MKKKGKFLLFTMDEFDQWLLETRFSRSVKLVQNHHTYLPGYVQFTGSNHFGLLEGMEHFHMAERGFSEIAQNLTSFPDGTVAVCRSIDKVPCGIKGANQEGICLENLGNFDAGGDTMTPAHRDAIVKINALLCREFNLTPNTDSIVYHHWYDLNSGKRTGGSGTTKTCPGTAFFGGNSMDAAAATFIPLVAQTLAQLTGGTAPSAPVPLKSGEVVASSLNVRAGRGTEFPVVKGLKRGVRVNVFETADGWVRIHPTEQQWVAERYLRYAAAALEHHHHHH | soluble |
| MKKKILKVATALTIMGGVAFSAEGATAKAELAAKPQQASQAIFKDVPAGHWSYEAIQTLAEQEIMLGYGNGVFGFGHNVTREQVAALIYRALDLDEEFGEDEELESPYNDIVDDNSTMFPFEVLAVTELGIFTGDEKGNFRPKDTLTRAEMAQVLTRAFGLQVQGLAGFKDVPKGHWAENAINAVGSNGISVGDGNGNFAPNMKVTREQYAQFLFRAL | not soluble |
| MKKKSNLTLFMKQLIRSLKEEERFSTAHIYQSTLNAFMLFCKTDAIRFNQMERSRLKQFENHLRNKGCTWNTVSTYMRTLRSIYNKAVDDGLAEEKPRLFRHVYTGVKANTKRALDAKDMSKLLSASLPRPLPQSMKESRAWITLMFLLRGMPFVDLAHLRKTDLQDSVISYRRHKTGALLTVEIPPAAMNLIKRYQNTDSASPYLLPILSGNRKSEEEYAEYQHALRKLNYDLKQLAVYCGIKLNVSSYTSRHTWATLAKYCHFSEQLICDALGHSSTKVTETYLKSFKNDELDRANKVIINHINISI | not soluble |
| MKKLLLPLVLAGVLLATLLVSQSSSSPSLRVAYVDVEKATESYYKWQDLNEKYKRDYSFYQNKLKEMEDELKKMQEEGRSQEEIQAKQKEILSKKAEYENLLKTEYQQKIQEVMKEVVSKIQEYASVMGYDLVIAKQMVLYGKPSYDITDQVIAYINQK | not soluble |
| MKKLVHLSDFHYDGLRLSEEMLAEAIAVSNQVQPDLVLLTGDYVTTTPQPIHQLAKRLQKLQSHAGIYAILGNHDLYQKNSKTEITQALTKAGIQVLWNEIAYPLGEELPIVGIVDYYYREFNPQLLFNQLEPTTPRIVLCHNPDTAAMLQGWRVDLQLSGHTHGGLEHHHHHH | not soluble |
| MKKMHVESEFAPLRSVVLAQSQFCLPDKFDEADTTFLTEENARLTQNNEGRDLADFAPEQQVRWEKEKEVMQGVLESYGVEVFRPRLLTTYEKEHGKELGVGYSNFFSRDPFFTIGNLLIEGNLRFQHRRQEILPIRPIIQQWTQEAEGYYFAAPQPDISEGALSEAGPFIEGGDVLVLGKTIFVGYSGLASNLAGIQWLANMIGHFGYEVVPVRLHPHILHLDCALSLLREGLMIVCEEAFLDGLPAQLANWEKIHVTLQEAAYLVTNGLPLNEETYITDQSFTTLIPQIEAKGIKVEAIDYHVSRMLGGSFRCTTQALIRE | not soluble |
| MKKNDLSALQENCFCFCDEEISREAPFQVPIDFPEGFKVDTAEASAAVTWSTDNLSCISEPCLIQTGPEPEDIGVRYAVRVQGTITLLVSVSPVRNQYGQGDGAVSVIHTEEIDQVVYYAAQSGRCPDFSQITVEDLLIVPPFYGSPLTVAGTLVLPPSPDPQSYVFTANTGDSTVSVIDADLNTVVKTIPFSDVPTNLGVTFDKAFTYVLHGNTNLVSVIDNKTLTIINTITVGGGPRKIEFDPTDEFAYVMAAGSIYVINTASQSVIDVIPIPGALDFALDPNGQYVYTANGSSWSVDKYDVNTGQLVESIIDTFEFPSLITTPYAGNFAYVLNGELWPKGVTEISLSPLSRGGDFSRLFETLRTIVFSLDSTRAYFLEPYSEPFLINNLYVVNTARQRIIANVSLPGAFDLAVTPDKQYIYAAQPNDNAVTVYRTSDYTAVTVIPVGAGPSAIAMLEHHHHHH | not soluble |
| MKKPIEFYLSGDRVYSTREKAINQLYNNRGYGELKGDKLFLSLIEAAYLTEKGWIKVVDKDKELKFDDLMKLGKSRDEDFDIKYIVYKDLRDRGYIVKSALKFGSHYRVYRKDAEHSDWLIWVLRENQRLSPNDITARARVAHGVRKNMVLAIVDEDGDVVYYKVEWIKF | soluble |
| MKKPKHDLTHVRHDPAHCLAPGLFRSLKRGDRKRCKLDVTYTFGEDESMRFVGFEPLGADDMRLLQGIVALGGPNGILLTPEPTSETGRQLRLFLEPRFEAIEQDGLVVRESLTKLLSETGMTDSGDNIKALKASLLRMSNVTILVTKGRRQAAFHLMSHAFDETDGRLWVALNPRIAEAILGHRPYARIDMAEVRVLQTDPARLMHQRLCGWIDPGKSGRVELDTLCGYVWPDEANAEAMKKRRQTARKALAELAAVGWVVNEYAKGKWEIKRPGPTATAPVYRRNVPLLPS | not soluble |
| MKKQSCSHTTEDVPFPQANRRKFLQLAALGSSIGLFSVVSGISEARAEKKAGTLLLSCMDYRLMDEIERYMLRRGLYHNYDHIVLAGASLGAVTDKYPAWSRTFWDHLDLAVNLHEIHTVMVMDHRDCGAYKILLGEDYSKDTDRETAEHTIKLTQLKDMINKKYPKIEVETLLMGLNGEVEAIPTAVAKQG | not soluble |
| MKKSLDEHAERFSDHADAYDEDQDSAAYRACVNFVVDHAAPESDDVVLDLGTGTGAIAFALASDAAEIIGRDISDGMLEKAREKADGRGVENVSFGDGRFRAPNVDRPVDIVTSNFAMHHLGDDEKREAIDTIADLGPRRIVLGDVMLFGDDDPDAPFYSPEVDDPATVGVLADAFTDAGYALTAVEMVTEQAGVLVAERVKSDLEHHHHHH | soluble |
| MKKVAVLLAPGFEEAEAIVTLDILRRLHIDVETLACAESRAVVSYHDIPMVADSTLSERQQALFDAVVLPGGPQGSANLAANPAVIAFVARHDAAGKLICPICSAAARVLGAHGLLKGRRYVCSGDLWKAVPEGVYVDAPVVEDGNLISGKGLGHVFDFALTLSARLLGDDAPVREQAEHIYYPW | not soluble |
| MKKVITYGTFDLLHWGHIKLLERAKQLGDYLVVAISTDEFNLQKQKKAYHSYEHRKLILETIRYVDEVIPEKNWEQKKQDIIDHNIDVFVMGDDWEGKFDFLKDQCEVVYLPRTEGISTTKIKEEIAGL | soluble |
| MKKVLILGGGIAGVAAAIAFRKRGFEVEVVSDREFLFIYPIAIWIPVGTERFRNVAFPLEKVARKHGFSLTLDTVTAINASRDSVTLEKAGQRSDFDFLVIALGSDKMKHEGIEHTLSICGAPEHSIRLKEKIDALIERGHGKIAFGFGGNPKDPSAVRGGPGFELFFNLHHKLTKLGIRDNFEMTFFAPMAQPGAKMGQKALDMMAVMFKAKNFRQRYGKKITRFEVDGVVFEDGSKLESDLTMFIPAGSGHSVFRNSDLPLSEAGFVKIDDFCRVVGVDGWYAVGDSAALEGPEWKAKQGHIAEFMADCAANNCLAEHFGHQEPMRGYQEHLNVLCVMDTGDGAGFVYRTGHSEMFIPMPVVGHWLKKAWGYYYKLSKMKYIPRIPGMLEHHHHHH | soluble |
| MKKWFPALLFSLCVSGESSAWNNIVFYSLGDVNSYQGGNVVITQRPQFITSWRPGIATVTWNQCNGPEFADGFWAYYREYIAWVVFPKKVMTQNGYPLFIEVHNKGSWSEENTGDNDSYFFLKGYKWDERAFDAGNLCQKPGEITRLTEKFDDIIFKVALPADLPLGDYSVKIPYTSGMQRHFASYLGARFKIPYNVAKTLPRENEMLFLFKNIGGCRPSAQSLEIKHGDLSINSANNHYAAQTLSVSCDVPANIRFMLLRNTTPTYSHGKKFSVGLGHGWDSIVSVNGVDTGETTMRWYKAGTQNLTIGSRLYGESSKIQPGVLSGSATLLMILP | soluble |
| MKKYADDSLMLHTDLYQINMVETYWEDRMHERRAVFEVFFRKLPFGNGYAVFAGLERVIQFLQQFRFSDSDIDYLRQELGYRDDFLDYLRTLRFTGTVRSMREGEVVFANEPIMRIEAPLAEAQLIETAILNIINFQTLIATKASRIKHILGDEPALEFGSRRAQEMDAALWGARAAYIGGIEATSNVRAGKLFGIPVAGTHAHSMIQAYQDEYTAFLKYARRHKDCVFLVDTYDTLKSGVPNAIRVAKELGDQINFIGIRIDSGDLAYLSKEARKMLDEAGFPNAKIFASNDLDEDTILNLKSQGAKIDVWGIGTKLITAYDQPALGAVYKMVAIENERGEMVDTIKISGNPEKVTTPGLKRVYRIVNKINHKAEGDYIALESENPQQEERLKMFHPVYTFISKFVTNFEARDLHVTIFDNGRLVYTSPPLPDIQAYAKESLRLFWEEYKRTLNPEQYPVDLSQACWDNKMENIRKVKEKIAGASLSE | not soluble |
| MKLFQPSEIVTSLPTQFFASLVAKVNKVVAAGHDVINLGQGNPDQPTPQHIVKALQDAAEKTIHHKYPPFRGHESLKEAVATFYQREYDVVVNPKTEVAILFGGKAGLVELPVCFTNPGDTILVPDPGYPDYLSGVALAKAQFETMPLIAENNFLPDYTKIDDSIAERAKLMFLNYPNNPTGATASKDFFDETIHFANKHNILVVHDFAYGAIGFDGQKPVSFLQADGAKDTGIEIYTLSKTFNMAGWRIAFAVGNESVIETINLLQDHMYVSIFGAIQDAAREALLSSQSCVIDLVNSYESRRNALISACHSIGWNVDIPTGSFFAWLPVPEGYTSEQFSDILLEKAHVAVAPGVGFGEHGEGYVRVGLLHTEDRLREAINRIDKLNFFKK | not soluble |
| MKLLLLAVCVIGFVACYEVVPRASALRPRGDVRRSPLPSLSAYAPFAKSLRPASTGIRRAPAVVTLPAQKANRSVKRAPAKPLPMTLPLLPPLLPLPQFIPVPVPVLSAEGLPTLPTLAPHTFPTFTPIPGMPTMPALTMPPSFQRLLGITTTTMKPAEKAMETVQTEESDNDTTSEARAHSAPTYSKDLNTIRSRLSKFVRGSEKKVTKAEDNADWIVPFH | not soluble |
| MKLNDPLVESFEFRGEIYPIDLSFNKVLDVFDVIDDDFLNEAEKCFLCLDILLDRTDLPFTYAVDLWVYIKTNFIDAERPEKPQLDIKGNPMPVVKEKEDNKKVIDLSLDAEFIYASFRQAYQINLLKEQNRLSWIEFKALLNALPDDTVMQRIIAIRQWEDDGEGSKKYRDNMRKLKAKYSLDEREEEDDGS | not soluble |
| MKMIIAIVQDQDSQELADQLVKNNFRATKLATTGGFLRAGNTTFLCGVNDDRVDEILSVINQTCGNREQLVSPITPMGGSADSYIPYPVEVEVGGATVFVMPVDAFHQF | not soluble |
| MKMTVVGFWGGFPEAGEATSGYLFEHDGFRLLVDCGSGVLAQLQKYITPSDIDAVVLSHYHHDHVADIGVLQYARLITSATKGQLPELPIYGHTFDENGFHSLTHEPHTKGIPYNPEETLQIGPFSISFLKTVHPVTCFAMRITAGNDIVVYSADSSYIPEFIPFTKDADLFICECNMYAHQEAAKAGHMNSTEVASIAKDANVKELLLTHLPHTGNPADLVTEAKQIFSGHITLAHSGYVWNS | soluble |
| MKNDVISPEFDENGRPLRRIRSFVRRQGRLTKGQEHALENYWPVMGVEFSEAPVDFATLFGREAPVTLEIGFGMGASLVAMAKARPEQNFLGIEVHSPGVGACLASANEEGVENLRVMCHDAVEVLHKMIPDNSLSMVQLFFPDPWHKARHNKRRIVQVPFAELVLSKLKLGGVFHMATDWEAYAEHMLEVMSSIDGYKNLSESNDYVPRPESRPVTKFEQRGHRLGHGVWDLMFERVK | not soluble |
